According to US20250092135A1 (NANJING LEADS BIOLABS, published 2025):

T1: human MUC16 protein (ECT_TM huMuc16) on 293T cells (human)
T1 chain: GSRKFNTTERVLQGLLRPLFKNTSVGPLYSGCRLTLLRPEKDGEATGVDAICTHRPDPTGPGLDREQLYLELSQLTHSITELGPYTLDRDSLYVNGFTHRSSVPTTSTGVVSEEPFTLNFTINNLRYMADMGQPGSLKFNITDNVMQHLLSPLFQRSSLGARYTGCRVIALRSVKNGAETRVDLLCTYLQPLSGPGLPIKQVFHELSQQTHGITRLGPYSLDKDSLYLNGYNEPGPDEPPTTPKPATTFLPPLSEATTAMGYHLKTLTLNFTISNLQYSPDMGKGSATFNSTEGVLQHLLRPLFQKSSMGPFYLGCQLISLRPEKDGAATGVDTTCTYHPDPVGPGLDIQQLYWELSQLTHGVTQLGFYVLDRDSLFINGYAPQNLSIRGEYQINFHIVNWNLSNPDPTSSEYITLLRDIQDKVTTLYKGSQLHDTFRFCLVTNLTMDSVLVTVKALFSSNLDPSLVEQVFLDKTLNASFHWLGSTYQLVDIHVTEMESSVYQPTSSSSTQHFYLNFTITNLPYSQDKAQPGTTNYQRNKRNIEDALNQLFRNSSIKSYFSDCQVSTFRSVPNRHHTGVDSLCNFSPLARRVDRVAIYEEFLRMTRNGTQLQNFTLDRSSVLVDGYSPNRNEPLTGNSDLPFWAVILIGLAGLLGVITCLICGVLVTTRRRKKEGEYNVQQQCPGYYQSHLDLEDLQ

T2: Human MUC16-His (human)
T2 construct: The entry includes the C-terminal 6xHis tag; also called membrane-proximal end of the extracellular region of the human MUC16 protein; Human MUC16 protein
T2 chain: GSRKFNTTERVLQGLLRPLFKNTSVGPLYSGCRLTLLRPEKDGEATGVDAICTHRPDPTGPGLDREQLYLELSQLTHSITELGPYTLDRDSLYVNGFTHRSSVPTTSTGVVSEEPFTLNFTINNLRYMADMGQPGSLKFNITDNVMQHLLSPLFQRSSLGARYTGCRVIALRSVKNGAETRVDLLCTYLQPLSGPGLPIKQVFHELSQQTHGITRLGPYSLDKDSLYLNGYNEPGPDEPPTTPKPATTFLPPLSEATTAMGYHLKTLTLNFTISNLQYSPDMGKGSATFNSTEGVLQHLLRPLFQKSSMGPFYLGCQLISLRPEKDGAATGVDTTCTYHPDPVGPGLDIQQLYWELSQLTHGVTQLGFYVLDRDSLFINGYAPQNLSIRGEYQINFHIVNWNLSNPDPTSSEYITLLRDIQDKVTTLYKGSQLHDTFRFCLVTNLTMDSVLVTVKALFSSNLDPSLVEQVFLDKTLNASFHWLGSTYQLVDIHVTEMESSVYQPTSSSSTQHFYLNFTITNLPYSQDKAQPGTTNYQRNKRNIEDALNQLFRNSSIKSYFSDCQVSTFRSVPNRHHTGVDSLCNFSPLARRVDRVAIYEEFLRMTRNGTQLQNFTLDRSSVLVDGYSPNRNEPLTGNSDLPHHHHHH


Key:
[1] = biological target: T1, human MUC16 protein (ECT_TM huMuc16) on …; test: flow cytometry, 293T/hMUC16 cells, PE anti-human IgG Fc secondary, MFI; EC50 table under the plot, unit from the axis Conc.(nM)
Description: The serially diluted anti-human MUC16 antibodies (at an initial concentration of 200 nM, 4-fold dilution, 8 points in total) obtained in the present application were added to the cells, and the cells were incubated at 4° C. for 30 min. The cells were washed twice with PBS, and then fluorescent secondary antibody R-PE-conjugated AffiniPure Goat Anti-Human IgG, Fcγ Fragment Specific (Jackson ImmunoResearch, Cat #109-116-098) was added. The cells were incubated at 4° C. for 30 min. The cells were washed twice with PBS and then resuspended, and finally, fluorescence signals were detected using a BD Accuri C5 (BD Bioscience) flow cytometer.

Human MUC16-His = biological target: T2, Human MUC16-His; test: BLI (ForteBio Octet RED96), antibody on AHC sensor, analyte 100-3.13 nM, 1:1 model
Source text: (§1) In this experiment, the binding affinity of the bispecific antibody for the human CD3 protein (Cat #CT038-H2508H, Sinobiological), cynomolgus monkey CD3 protein (Cat #CDD-C52W4, Acrobiosystems), human MUC16 protein (full-length human MUC16, the membrane-proximal end of the extracellular region of MUC16 (Table 26)), and cynomolgus monkey MUC16 protein (full-length cynomolgus monkey MUC16, the membrane-proximal end of the extracellular region of MUC16 (Table 26)) was detected using ForteBio Octet RED96 according to the manufacturer's instructions.
(§2) Briefly, an AHC sensor (ForteBio, Cat #18-5060) was placed in a running buffer (1×PBS, Hyclone, Cat #SH30256.01, containing 0.02% Tween 20, pH 7.0) and pre-equilibrated at room temperature for 10 min. […] The experimental data were fitted and calculated using a Fortebio Data Analysis software 1:1 binding model.

[2] = biological target: T3, Human CD3D & CD3E heterodimer protein (human, UniProt P07766 23-126; P04234 22-105); test: as above
T3 construct: Bought recombinant heterodimer; also called human CD3 protein (Sino Biological, Cat #CT038-H2508H)
T3 sequence (P07766 23-126 limits assumed, chain 1 of 2): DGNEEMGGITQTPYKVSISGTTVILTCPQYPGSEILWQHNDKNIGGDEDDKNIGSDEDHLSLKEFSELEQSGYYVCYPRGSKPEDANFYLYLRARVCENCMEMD
T3 sequence (P04234 22-105 limits assumed, chain 2 of 2): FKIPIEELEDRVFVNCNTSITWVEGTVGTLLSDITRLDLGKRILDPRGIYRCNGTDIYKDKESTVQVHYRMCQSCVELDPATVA
Source text: as §1, §2

Row | EC50 [1] [µM] | Kd (Human MUC16-His) [µM] | koff (Human MUC16-His) [s⁻¹] | kon (Human MUC16-His) [M⁻¹ s⁻¹] | Kd [2] [µM] | koff [2] [s⁻¹] | kon [2] [M⁻¹ s⁻¹] | Binder
1 | 0.0129 | – | – | – | – | – | – | anti-MUC16 antibody 776.1(C33S) (antibody, human IgG1, kappa, L234A L235A, V domains shown) VH: EVQLQQSGPELVKPGASVKISCKASGYTFTDYNIHWVKQSHGKILEWIGYIYPYNGVSDYNQNFKSKATLIVDNSSNTAYMELRSLTSEDSAVYYCARWDFGSGYYFDYWGQGTTLTVSS VL: QIVLSQSPAILFASPGETVTMTCRASSSVIYMSWNQQKPGSSPKPWIYGTSTLASGVPTRFSGSGSGTSYSLTISRVEAEDAATYYCQQWSSNPFTFGSGTKLEIKR
2 | – | 0.00317 | 0.000524 | 166000 | 0.0443 | 0.00933 | 211000 | anti-CD3/MUC16 bispecific antibody MCH7-23L2-MCH7 (bispecific antibody, human IgG1, kappa, L234A L235A, MCH7-23L2ScFv-Hole (VH-CH1-scFv-Fc) + MCH7-KIH-Knob + two light chains MCL4 LC) heavy 1: QVQLVQSGAEVKKPGASVKVSCKASGYTFTDYNIHWVRQAPGQGLEWMGYIYPYNGVSDYNQNFKSRVTMTTDTSTSTAYMELRSLRSDDTAVYYCARWDFGSGYYFDYWGQGTLVTVSSASTKGPSVFPLAPSSKSTSGGTAALGCLVKDYFPEPVTVSWNSGALTSGVHTFPAVLQSSGLYSLSSVVTVPSSSLGTQTYICNVNHKPSNTKVDKKVEPKSCEVQLVESGGGLVQPGGSLKLSCAASGFTFSTYAMNWVRQAPGKGLEWVGRIRSKYNNYATYYADSVKDRFTISRDDSKNTLYLQMNSLKTEDTAVYYCTRHGNFGNSYVSWFAYWGQGTTVTVSSGGGGSGGGGSGGGGSQAVVTQEPSLTVSPGGTVTLTCRSSTGAVTTSNYANWVQQKPGQAPRGLIGGTNKRAPGVPARFSGSLLGGKAALTLSGAQPEDEAEYFCALWYSNLWVFGGGTKLTVLGEPKSSDKTHTCPPCPAPEAAGGPSVFLFPPKPKDTLMISRTPEVTCVVVAVSHEDPEVKFNWYVDGVEVHNAKTKPREEQYNSTYRVVSVLTVLHQDWLNGKEYKCKVSNKALAAPIEKTISKAKGQPREPQVCTLPPSRDELTKNQVSLSCAVKGFYPSDIAVEWESNGQPENNYKTTPPVLDSDGSFFLVSKLTVDKSRWQQGNVFSCSVMHEALHNHYTQKSLSLSPGK heavy 2: not shown light: EIVLTQSPATLSLSPGERATLSCRASSSVIYMSWYQQKPGQAPRLLIYGTSTLASGIPARFSGSGSGTDFTLTISSLEPEDFAVYYCQQWSSNPFTFGQGTKLEIKRTVAAPSVFIFPPSDEQLKSGTASVVCLLNNFYPREAKVQWKVDNALQSGNSQESVTEQDSKDSTYSLSSTLTLSKADYEKHKVYACEVTHQGLSSPVTKSFNRGEC
